Measurements reported in publication doi:10.1101/2025.09.29.679187 (bioRxiv, 2025).

Target: 6xHis-PDE6D (UniProt O43924 1-150)
Assay: fluorescence polarisation

Chain of 6xHis-PDE6D (O43924 whole entry): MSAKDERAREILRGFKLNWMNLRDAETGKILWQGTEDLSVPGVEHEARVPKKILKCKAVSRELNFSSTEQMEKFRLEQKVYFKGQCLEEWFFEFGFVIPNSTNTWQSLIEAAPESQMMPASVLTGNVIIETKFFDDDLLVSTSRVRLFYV

Kd: 200 nM
B1: Wild-type K-Ras peptide (FAM-KKKKKKSKTKC-Far-OMe) (peptide)
peptide: KKKKKKSKTKC
modifications: FAM on the N-terminus; C-terminal cysteine farnesylated (Far) and carboxymethylated (OMe)
